tested on: Escherichia coli TOP10; assay: shrunken log2 fold change of peptide-encoding DNA abundance (4.5 h post-induction vs induction); higher = less antimicrobial activity (less host growth inhibition); conditions: time post-induction: 4.5 h; library: site-saturation at positions 5, 18, 19, 20
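Further: peptides expressed intracellularly from a pBAD plasmid library in pooled LB shake-flask culture, induced with 0.3% L-arabinose, DNA abundance read by NGS, three biological replicates, DESeq2 with apeglm shrinkage.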

| Sequence | shrunken log2 fold change |
| --- | --- |
| RRIRSRPPRLPRPRPRPLRIPRP | -0.0455 |
| RRIRWRPPRLPRPRPRPHLAPRP | 0.265 |
| RRIRERPPRLPRPRPRPFKRPRP | 0.0596 |
| RRIRTRPPRLPRPRPRPIGNPRP | -0.0759 |
| RRIRMRPPRLPRPRPRPAGLPRP | 0.47 |
| RRIRFRPPRLPRPRPRPAWMPRP | 0.336 |
| RRIRSRPPRLPRPRPRPPDMPRP | -0.188 |
| RRIRYRPPRLPRPRPRPKPCPRP | -0.0304 |
| RRIRRRPPRLPRPRPRPRCMPRP | 0.1 |
| RRIRWRPPRLPRPRPRPSVSPRP | 0.104 |
| RRIRKRPPRLPRPRPRPMYDPRP | -0.127 |
| RRIRLRPPRLPRPRPRPASKPRP | -0.116 |
| RRIRVRPPRLPRPRPRPHKPPRP | -0.0132 |
| RRIRKRPPRLPRPRPRPSGMPRP | 0.115 |
| RRIRKRPPRLPRPRPRPPCYPRP | 0.202 |
| RRIRSRPPRLPRPRPRPAQFPRP | -0.114 |
| RRIRTRPPRLPRPRPRPCSEPRP | -0.0314 |
| RRIRWRPPRLPRPRPRPHVQPRP | -0.209 |
| RRIRLRPPRLPRPRPRPFILPRP | -0.978 |
| RRIRPRPPRLPRPRPRPSDFPRP | -0.42 |
| RRIRTRPPRLPRPRPRPDQCPRP | 0.0333 |
| RRIRYRPPRLPRPRPRPFFYPRP | -0.614 |
| RRIRRRPPRLPRPRPRPTFAPRP | 0.765 |
| RRIRKRPPRLPRPRPRPWYEPRP | -0.0672 |
| RRIRPRPPRLPRPRPRPGWNPRP | -0.055 |

| Sequence | shrunken log2 fold change |
| --- | --- |
| RRIRNRPPRLPRPRPRPECWPRP | 0.616 |
| RRIRSRPPRLPRPRPRPSCLPRP | -0.585 |
| RRIRRRPPRLPRPRPRPWNSPRP | 0.0625 |
| RRIRARPPRLPRPRPRPQELPRP | 0.0199 |
| RRIRDRPPRLPRPRPRPEKCPRP | -0.000921 |
| RRIRHRPPRLPRPRPRPFSYPRP | -0.28 |
| RRIRSRPPRLPRPRPRPYKYPRP | -0.637 |
| RRIRFRPPRLPRPRPRPKVVPRP | 0.291 |
| RRIRKRPPRLPRPRPRPYHPPRP | 0.0155 |
| RRIRVRPPRLPRPRPRPVGEPRP | 0.305 |
| RRIRMRPPRLPRPRPRPCVQPRP | -0.0115 |
| RRIRYRPPRLPRPRPRPCTMPRP | -0.347 |
| RRIRTRPPRLPRPRPRPTIYPRP | -0.409 |
| RRIRERPPRLPRPRPRPSRTPRP | -0.111 |
| RRIRPRPPRLPRPRPRPHTNPRP | 0.401 |
| RRIRFRPPRLPRPRPRPEKQPRP | -0.0262 |
| RRIRKRPPRLPRPRPRPIEGPRP | -0.00926 |
| RRIRARPPRLPRPRPRPWNMPRP | -0.046 |
| RRIRFRPPRLPRPRPRPGSKPRP | -0.43 |
| RRIRCRPPRLPRPRPRPPGRPRP | 1.16 |
| RRIRARPPRLPRPRPRPCSAPRP | 0.356 |
| RRIRLRPPRLPRPRPRPMRNPRP | 0.372 |
| RRIRNRPPRLPRPRPRPSTCPRP | -0.186 |
| RRIRCRPPRLPRPRPRPTLIPRP | 1.65 |
| RRIRIRPPRLPRPRPRPCIGPRP | -0.632 |

| Sequence | shrunken log2 fold change |
| --- | --- |
| RRIRARPPRLPRPRPRPPAMPRP | 0.394 |
| RRIRTRPPRLPRPRPRPDDEPRP | 0.0101 |
| RRIRLRPPRLPRPRPRPHQEPRP | -0.00192 |
| RRIRRRPPRLPRPRPRPCYLPRP | -0.499 |
| RRIRLRPPRLPRPRPRPEIGPRP | 0.0748 |
| RRIRSRPPRLPRPRPRPPGWPRP | 0.193 |
| RRIRNRPPRLPRPRPRPPYNPRP | -0.627 |
| RRIRFRPPRLPRPRPRPLLWPRP | 0.305 |
| RRIRHRPPRLPRPRPRPQNMPRP | -0.731 |
| RRIRKRPPRLPRPRPRPPCWPRP | 1.03 |
| RRIRSRPPRLPRPRPRPTMMPRP | -0.253 |
| RRIRRRPPRLPRPRPRPYGKPRP | -0.813 |
| RRIRSRPPRLPRPRPRPIRHPRP | -0.0283 |
| RRIRRRPPRLPRPRPRPYMCPRP | 0.154 |
| RRIRGRPPRLPRPRPRPAMGPRP | 0.541 |
| RRIRNRPPRLPRPRPRPRALPRP | 0.117 |
| RRIRMRPPRLPRPRPRPSATPRP | 3.21 |
| RRIRERPPRLPRPRPRPNKMPRP | -0.324 |
| RRIRYRPPRLPRPRPRPPTAPRP | -0.111 |
| RRIRMRPPRLPRPRPRPCGFPRP | 0.0233 |
| RRIRVRPPRLPRPRPRPPYCPRP | -0.0177 |
| RRIRTRPPRLPRPRPRPHFDPRP | -0.385 |
| RRIRLRPPRLPRPRPRPYELPRP | 0.00404 |
| RRIRFRPPRLPRPRPRPDFHPRP | -0.287 |
| RRIRVRPPRLPRPRPRPFWEPRP | -0.0891 |
